In patent publication US20170226213A1 (Daiichi Sankyo, published 2017) one finds binding result and Kd data, which are given here for one molecule.

As usually defined, the Kd is the constant that tells how readily two partners part at equilibrium.

Test [1] addresses T1, FGFR4 construct with Ig-like domain 1 (amino acids 22-180) on Hek293 cells (UniProt P22455 22-180).
T1 construct: range 22-180; Expressed on transfected Hek293 cells
Nature of the test: flow cytometry on Hek293 cells transfected with the FGFR4 (D1) construct, PE-conjugated anti-human IgG. As to the method: Hek293 cells were obtained from CLS and cultured in DMEM containing 10% FBS under standard conditions at 37° C. and 5% CO2. On Day 0, cells were seeded and after 24 h cells were transfected with plasmids coding for FGFR4 containing the indicated domain. Cells were allowed to express the proteins for 48 h and were then dissociated from the dish with 5 mM EDTA in PBS followed by incubation with indicated anti-FGFR4 antibody. Binding was determined using a Phycoerythrin-conjugated anti-human IgG antibody (Jackson Immuno Research Europe). Data was acquired with a BD Accuri C6 flow cytometer (BD Biosciences) and analyzed using the AccuriC6 software.

The target of test [2] is T2, cynomolgus monkey FGFR4 on transfected Hek293 cells (cynomolgus monkey).
T2 construct: whole, on cells
Nature of the test: flow cytometry titration on transfected Hek293 cells. As to the method:
Hek293 cells were obtained from CLS (Cell Lines Service, Eppelheim; Germany) and cultured in DMEM containing 10%FBS under standard conditions at 37° C. and 5% CO2. On Day 0, cells were seeded at 4×10⁵ cells/10 cm dish. After 24 h, cells were transfected with plasmids coding for FGFR4 from rat, mouse, human or cynomolgus monkey. Cells were allowed to express the proteins for 48 h and were then dissociated from the dish with 5 mM EDTA in PBS followed by incubation with indicated concentrations of anti-FGFR4 antibody U4-3 or GT-13. Binding was determined using a Phycoerythrin-conjugated anti-human IgG antibody (Jackson Immuno Research Europe). Data was acquired with a BD Accuri C6 flow cytometer (BD Biosciences.) and analyzed using the AccuriC6 software. Antibody titrations experiment (starting concentration 10 μg/ml; 1:3 dilution) allowed calculation of the dissociation constants for the antibodies (see table below).

T1 sequence (P22455 22-180 limits assumed): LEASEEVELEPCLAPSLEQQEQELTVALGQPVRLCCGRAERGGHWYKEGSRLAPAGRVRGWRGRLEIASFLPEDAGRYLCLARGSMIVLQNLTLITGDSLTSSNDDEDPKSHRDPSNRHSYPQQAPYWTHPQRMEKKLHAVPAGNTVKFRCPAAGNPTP

B1: human anti-FGFR4 antibody U4-3 (antibody, V domains shown)
VH: EVQLLESGGGLVQPGGSLRLSCAASGFTFSDYYMSWIRQAPGKGLEWVSTISGSGGSTYYADSVKGRFTISRDNSKNTLYLQMNSLRAEDTAVYYCARLTAYGHVDSWGQGTLVTVSS
VL: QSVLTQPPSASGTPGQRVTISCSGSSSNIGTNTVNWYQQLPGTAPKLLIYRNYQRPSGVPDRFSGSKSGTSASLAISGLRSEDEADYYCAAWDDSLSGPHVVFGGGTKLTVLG
Consider B1, for which the binding result in test [1] is recorded as “no binding”. Also, the Kd in test [2] came out at 0.32 nM.
